Test results reported in PMC4258113 (Journal of proteome research, 2013).
Where no end group is shown, it is not given here. Me3 = trimethyl-lysine (trimethylated lysine)

T1: GST-tagged chromodomain (a.a. 1-90) of Drosophila melanogaster polycomb protein (Drosophila melanogaster, UniProt P26017 1-90)
T1 sequence (looked up): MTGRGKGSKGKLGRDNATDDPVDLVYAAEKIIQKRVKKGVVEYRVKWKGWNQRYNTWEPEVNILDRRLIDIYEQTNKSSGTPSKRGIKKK


The binders below were run against T1, GST-tagged chromodomain (a.a. 1-90) of … (assay: peptide or protein array).

Binding result, binds:
RIHRLLRK(Me3)G [trimethylated histone peptide RIHRLLRKG (H2A1A, lysine site 35)]
GRIHRHLK(Me3)S [trimethylated histone peptide GRIHRHLKS (H2AZ, lysine site 37)]
REIRRYQK(Me3)S [trimethylated histone peptide REIRRYQKS (H3.3, lysine site 56)]
RTKQTARK(Me3)S [trimethylated histone peptide RTKQTARKS (H3.3, lysine site 9)]
MDVVYALK(Me3)R [trimethylated histone peptide MDVVYALKR (H4, lysine site 91)]
DSGKAKAK(Me3)A [trimethylated histone peptide DSGKAKAKA (H2AV, lysine site 15)]
ASKDLKVK(Me3)R [trimethylated histone peptide ASKDLKVKR (H2AZ, H2AV, lysine site 79)]
LATKAARK(Me3)S [trimethylated histone peptide LATKAARKS (H3.3, lysine site 27)]
GGAKRHRK(Me3)V [trimethylated histone peptide GGAKRHRKV (H4, lysine site 20)]
PRKQLATK(Me3)A [trimethylated histone peptide PRKQLATKA (H3.3, lysine site 23)]
EGTKAVTK(Me3)Y [trimethylated histone peptide EGTKAVTKY (H2B1A and other H2B, lysine site 117)]
IQAVLLPK(Me3)K [trimethylated histone peptide IQAVLLPKK (H2A1 and other H2A, lysine site 117)]
